# According to US20060159697A1 (INSTITUT PASTEUR, published 2006):
# B1: CyaA 373-1706 (hemolytic moiety) (other)
# chain: MGCGNSKFSPDVLETVPASPGLRRPSLGAVERQDSGYDSLDGVGSRSFSLGEVSDMAAVEAAELEMTRQVLHAGARQDDAEPGVSGASAHWGQRALQGAQAVAAAQRLVHAIALMTQFGRAGSTNTPQEAASLSAAVFGLGEASSAVAETVSGFFRGSSRWAGGFGVAGGAMALGGGIAAAVGAGMSLTDDAPAGQKAAAGAEIALQLTGGTVELASSIALALAAARGVTSGLQVAGASAGAAAGALAAALSPMEIYGLVQQSHYADQLDKLAQESSAYGYEGDALLAQLYRDKTAAEGAVAGVSAVLSTVGAAVSIAAAASVVGAPVAVVTSLLTGALNGILRGVQQPIIEKLANDYARKIDELGGPQAYFEKNLQARHEQLANSDGLRKMLADLQAGWNASSVIGVQTTEISKSALELAAITGNADNLKSVDVFVDRFVQGERVAGQPVVLDVAAGGIDIASRKGERPALTFITPLAAPGEEQRRRTKTGKSEFTTFVEIVGKQDRWRIRDGAADTTIDLAKVVSQLVDANGVLKHSIKLDVIGGDGDDVVLANASRIHYDGGAGTNTVSYAALGRQDSITVSADGERFNVRKQLNNANVYREGVATQTTAYGKRTENVQYRHVELARVGQVVEVDTLEHVQHIIGGAGNDSITGNAHDNFLAGGSGDDRLDGGAGNDTLVGGEGQNTVIGGAGDDVFLQDLGVWSNQLDGGAGVDTVKYNVHQPSEERLERMGDTGIHADLQKGTVEKWPALNLFSVDHVKNIENLHGSRLNDRIAGDDQDNELWGHDGNDTIRGRGGDDILRGGLGLDTLYGEDGNDIFLQDDETVSDDIDGGAGLDTVDYSAMIHPGRIVAPHEYGFGIEADLSREWVRKASALGVDYYDNVRNVENVIGTSMKDVLIGDAQANTLMGQGGDDTVRGGDGDDLLFGGDGNDMLYGDAGNDTLYGGLGDDTLEGGAGNDWFGQTQAREHDVLRGGDGVDTVDYSQTGAHAGIAAGRIGLGILADLGAGRVDKLGEAGSSAYDTVSGIENVVGTELADRITGDAQANVLRGAGGADVLAGGEGDDVLLGGDGDDQLSGDAGRDRLYGEAGDDWFFQDAANAGNLLDGGDGRDTVDFSGPGRGLDAGAKGVFLSLGKGFASLMDEPETSNVLRNIENAVGSARDDVLIGDAGANVLNGLAGNDVLSGGAGDDVLLGDEGSDLLSGDAGNDDLFGGQGDDTYLFGVGYGHDTIYESGGGHDTIRINAGADQLWFARQGNDLEIRILGTDDALTVHDWYRDADHRVEIIHAANQAVDQAGIEKLVEAMAQYPDPGAAAAAPPAARVPDTLMQSLAVNWR
# Target: human CD11b/CD18 (alphaM beta2 integrin) on transfected CHO cells (human, UniProt P11215 17-1152; P05107 23-769)
# Assay: FACS competition on CHO-CD11b cells, competitor CyaA-biotin
binder,measurement,value
B1,binding result,binds
